Measured values published in publication PMC3664666 (Science signaling, 2012).
Changes are numbered by the printed parent chain. Numbers in names are those of the source.

T1: phosphorylated Mt-MviN KHD 681-963 (M. tuberculosis, UniProt P9WJK2 681-963, phosphothreonine at 947)
T1 sequence: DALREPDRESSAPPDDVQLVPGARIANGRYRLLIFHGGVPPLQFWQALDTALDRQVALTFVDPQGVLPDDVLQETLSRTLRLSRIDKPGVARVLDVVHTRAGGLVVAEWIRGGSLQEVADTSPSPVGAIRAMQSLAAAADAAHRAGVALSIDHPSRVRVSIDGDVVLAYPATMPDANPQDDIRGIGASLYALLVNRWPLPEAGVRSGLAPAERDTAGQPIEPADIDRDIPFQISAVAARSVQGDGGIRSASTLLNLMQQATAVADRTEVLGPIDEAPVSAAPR

B1: FhaA FHA domain Q461A (domain or fragment)
chain: PQGGGYAEPAGRDYDYGQSGAPDYGQPAPGGYSGYGQGGYGSAGTSVTLQLDDGSGRTYQLREGSNIIGRGADAQFRLPDTGVSRRHLEIRWDGQVALLADLNSTNGTTVNNAPVQEWQLADGDVIRLGHSEIIVR
B2: FhaA FHA domain R459A (domain or fragment)
chain: B1 chain with R70A, A72Q
B3: FhaA FHA domain R474A (domain or fragment)
chain: B1 chain with A72Q, R85A

Target: T1, phosphorylated Mt-MviN KHD 681-963
Experiment: ITC

Row | Binder | binding result | fold reduction of the binding affinity against the wild type [fold]
1 | B1 | binds | –
2 | B2 | – | > 170
3 | B3 | – | 41
